# Laboratory results as given in patent publication US20140271457A1 (AbbVie / Abbott, published 2014).
# Positions count from the first letter of the chain named.
# B1: DVD3221 (bispecific antibody, IgG1)
# VH: EVQLVESGGGLVQPGGSLRLSCAASGFSFSKYWLGWVRQAPGKGLEWVSDIYPGYDYTHYNEKFKDRFTISADTSKNTAYLQMNSLRAEDTAVYYCARSDGSSTYWGQGTLVTVSSASTKGPEVQLVESGGGLVQPGGSLRLSCAASGFTFSNYGVEWVRQAPGKGLEWVSGIWADGSTHYADTVKSRFTISRDNSKNTLYLQMNSLRAEDTAVYYCAREWQHGPVAYWGQGTLVTVSS
# VL: DIQMTQSPSSLSASVGDRVTITCTSSQNIVHSNGNTYLEWYQQKPGKAPKLLIYKVSNRFSGVPSRFSGSGSGTDFTLTISSLQPEDFATYYCFQVSHVPYTFGQGTKVEIKRTVAAPSVFIFPPDIQMTQSPSSLSASVGDRVTITCKASQLVSSAVAWYQQKPGKAPKLLIYWASTLHTGVPSRFSGSGSGTDFTLTISSLQPEDFATYYCQQHYRTPFTFGQGTKLEIKR
# B2: DVD3214 (bispecific antibody, IgG1)
# VH: EVQLVESGGGLVQPGGSLRLSCAASGFTFSNYGVEWVRQAPGKGLEWVSGIWADGSTHYADTVKSRFTISRDNSKNTLYLQMNSLRAEDTAVYYCAREWQHGPVAYWGQGTLVTVSSASTKGPEVQLVESGGGLVQPGGSLRLSCAASGFSFSKYWLGWVRQAPGKGLEWVSDIYPGYDYTHYNEKFKDRFTISADTSKNTAYLQMNSLRAEDTAVYYCARSDGSSTYWGQGTLVTVSS
# VL: DIQMTQSPSSLSASVGDRVTITCKASQLVSSAVAWYQQKPGKAPKLLIYWASTLHTGVPSRFSGSGSGTDFTLTISSLQPEDFATYYCQQHYRTPFTFGQGTKLEIKRTVAAPDIQMTQSPSSLSASVGDRVTITCTSSQNIVHSNGNTYLEWYQQKPGKAPKLLIYKVSNRFSGVPSRFSGSGSGTDFTLTISSLQPEDFATYYCFQVSHVPYTFGQGTKVEIKR
# B3: DVD3217 (bispecific antibody, IgG1)
# VH: EVQLVESGGGLVQPGGSLRLSCAASGFTFSNYGVEWVRQAPGKGLEWVSGIWADGSTHYADTVKSRFTISRDNSKNTLYLQMNSLRAEDTAVYYCAREWQHGPVAYWGQGTLVTVSSASTKGPSVFPLAPEVQLVESGGGLVQPGGSLRLSCAASGFSFSKYWLGWVRQAPGKGLEWVSDIYPGYDYTHYNEKFKDRFTISADTSKNTAYLQMNSLRAEDTAVYYCARSDGSSTYWGQGTLVTVSS
# VL: B2 VL
# B4: DVD3216 (bispecific antibody, IgG1)
# VH: B2 VH
# VL: DIQMTQSPSSLSASVGDRVTITCKASQLVSSAVAWYQQKPGKAPKLLIYWASTLHTGVPSRFSGSGSGTDFTLTISSLQPEDFATYYCQQHYRTPFTFGQGTKLEIKRTVAAPSVFIFPPDIQMTQSPSSLSASVGDRVTITCTSSQNIVHSNGNTYLEWYQQKPGKAPKLLIYKVSNRFSGVPSRFSGSGSGTDFTLTISSLQPEDFATYYCFQVSHVPYTFGQGTKVEIKR
# B5: DVD3223 (bispecific antibody, IgG1)
# VH: EVQLVQSGAEVKKPGASVKVSCKASGYTFANYGIIWVRQAPGQGLEWMGWINTYTGKPTYAQKFQGRVTMTTDTSTSTAYMELSSLRSEDTAVYYCARKLFTTMDVTDNAMDYWGQGTTVTVSSGGGGSGGGGSEVQLVESGGGLVQPGGSLRLSCAASGFSFSKYWLGWVRQAPGKGLEWVSDIYPGYDYTHYNEKFKDRFTISADTSKNTAYLQMNSLRAEDTAVYYCARSDGSSTYWGQGTLVTVSS
# VL: DIQMTQSPSSLSASVGDRVTITCRASQDISQYLNWYQQKPGKAPKLLIYYTSRLQSGVPSRFSGSGSGTDFTLTISSLQPEDFATYFCQQGNTWPPTFGQGTKLEIKRGGSGGGGSGDIQMTQSPSSLSASVGDRVTITCTSSQNIVHSNGNTYLEWYQQKPGKAPKLLIYKVSNRFSGVPSRFSGSGSGTDFTLTISSLQPEDFATYYCFQVSHVPYTFGQGTKVEIKR
# B6: DVD3224 (bispecific antibody, IgG1)
# VH: EVQLVQSGAEVKKPGASVKVSCKASGYTFANYGIIWVRQAPGQGLEWMGWINTYTGKPTYAQKFQGRVTMTTDTSTSTAYMELSSLRSEDTAVYYCARKLFTTMDVTDNAMDYWGQGTTVTVSSASTKGPEVQLVESGGGLVQPGGSLRLSCAASGFSFSKYWLGWVRQAPGKGLEWVSDIYPGYDYTHYNEKFKDRFTISADTSKNTAYLQMNSLRAEDTAVYYCARSDGSSTYWGQGTLVTVSS
# VL: DIQMTQSPSSLSASVGDRVTITCRASQDISQYLNWYQQKPGKAPKLLIYYTSRLQSGVPSRFSGSGSGTDFTLTISSLQPEDFATYFCQQGNTWPPTFGQGTKLEIKRTVAAPDIQMTQSPSSLSASVGDRVTITCTSSQNIVHSNGNTYLEWYQQKPGKAPKLLIYKVSNRFSGVPSRFSGSGSGTDFTLTISSLQPEDFATYYCFQVSHVPYTFGQGTKVEIKR
# B7: DVD3227 (bispecific antibody, IgG1)
# VH: EVQLVQSGAEVKKPGASVKVSCKASGYTFANYGIIWVRQAPGQGLEWMGWINTYTGKPTYAQKFQGRVTMTTDTSTSTAYMELSSLRSEDTAVYYCARKLFTTMDVTDNAMDYWGQGTTVTVSSASTKGPSVFPLAPEVQLVESGGGLVQPGGSLRLSCAASGFSFSKYWLGWVRQAPGKGLEWVSDIYPGYDYTHYNEKFKDRFTISADTSKNTAYLQMNSLRAEDTAVYYCARSDGSSTYWGQGTLVTVSS
# VL: B6 VL
# B8: DVD3226 (bispecific antibody, IgG1)
# VH: B6 VH
# VL: DIQMTQSPSSLSASVGDRVTITCRASQDISQYLNWYQQKPGKAPKLLIYYTSRLQSGVPSRFSGSGSGTDFTLTISSLQPEDFATYFCQQGNTWPPTFGQGTKLEIKRTVAAPSVFIFPPDIQMTQSPSSLSASVGDRVTITCTSSQNIVHSNGNTYLEWYQQKPGKAPKLLIYKVSNRFSGVPSRFSGSGSGTDFTLTISSLQPEDFATYYCFQVSHVPYTFGQGTKVEIKR
# B9: DVD3213 (bispecific antibody, IgG1)
# VH: EVQLVESGGGLVQPGGSLRLSCAASGFTFSNYGVEWVRQAPGKGLEWVSGIWADGSTHYADTVKSRFTISRDNSKNTLYLQMNSLRAEDTAVYYCAREWQHGPVAYWGQGTLVTVSSGGGGSGGGGSEVQLVESGGGLVQPGGSLRLSCAASGFSFSKYWLGWVRQAPGKGLEWVSDIYPGYDYTHYNEKFKDRFTISADTSKNTAYLQMNSLRAEDTAVYYCARSDGSSTYWGQGTLVTVSS
# VL: DIQMTQSPSSLSASVGDRVTITCKASQLVSSAVAWYQQKPGKAPKLLIYWASTLHTGVPSRFSGSGSGTDFTLTISSLQPEDFATYYCQQHYRTPFTFGQGTKLEIKRGGSGGGGSGDIQMTQSPSSLSASVGDRVTITCTSSQNIVHSNGNTYLEWYQQKPGKAPKLLIYKVSNRFSGVPSRFSGSGSGTDFTLTISSLQPEDFATYYCFQVSHVPYTFGQGTKVEIKR
# B10: DVD3218 (bispecific antibody, IgG1)
# VH: EVQLVESGGGLVQPGGSLRLSCAASGFSFSKYWLGWVRQAPGKGLEWVSDIYPGYDYTHYNEKFKDRFTISADTSKNTAYLQMNSLRAEDTAVYYCARSDGSSTYWGQGTLVTVSSGGGGSGGGGSEVQLVESGGGLVQPGGSLRLSCAASGFTFSNYGVEWVRQAPGKGLEWVSGIWADGSTHYADTVKSRFTISRDNSKNTLYLQMNSLRAEDTAVYYCAREWQHGPVAYWGQGTLVTVSS
# VL: DIQMTQSPSSLSASVGDRVTITCTSSQNIVHSNGNTYLEWYQQKPGKAPKLLIYKVSNRFSGVPSRFSGSGSGTDFTLTISSLQPEDFATYYCFQVSHVPYTFGQGTKVEIKRGGSGGGGSGDIQMTQSPSSLSASVGDRVTITCKASQLVSSAVAWYQQKPGKAPKLLIYWASTLHTGVPSRFSGSGSGTDFTLTISSLQPEDFATYYCQQHYRTPFTFGQGTKLEIKR
# B11: DVD3212 (bispecific antibody, IgG1)
# VH: EVQLVESGGGLVQPGGSLRLSCAASGFSFSKYWLGWVRQAPGKGLEWVSDIYPGYDYTHYNEKFKDRFTISADTSKNTAYLQMNSLRAEDTAVYYCARSDGSSTYWGQGTLVTVSSASTKGPSVFPLAPEVQLVESGGGLVQPGGSLRLSCAASGFTFSNYGVTWVRQAPGKGLEWVSMIWADGSTHYASSVKGRFTISRDNSKNTLYLQMNSLRAEDTAVYYCAREWQHGPVAYWGQGTLVTVSS
# VL: DIQMTQSPSSLSASVGDRVTITCTSSQNIVHSNGNTYLEWYQQKPGKAPKLLIYKVSNRFSGVPSRFSGSGSGTDFTLTISSLQPEDFATYYCFQVSHVPYTFGQGTKVEIKRTVAAPDIQMTQSPSSLSASVGDRVTITCRASQLVSSAVAWYQQKPGKAPKLLIYWASARHTGVPSRFSGSGSGTDFTLTISSLQPEDFATYYCQQHYKTPFTFGQGTKLEIKR
# B12: DVD3219 (bispecific antibody, IgG1)
# VH: B1 VH
# VL: B11 VL with R142K, A171T, R172L, K211R
# B13: DVD3222 (bispecific antibody, IgG1)
# VH: B11 VH with T164E, M179G, S190D, S191T, G194S
# VL: B11 VL with R142K, A171T, R172L, K211R
# Biological target: Recombinant Human TNF-α/TNFSF1A (human, UniProt P01375 77-233)
# Sequence (P01375 77-233 limits assumed): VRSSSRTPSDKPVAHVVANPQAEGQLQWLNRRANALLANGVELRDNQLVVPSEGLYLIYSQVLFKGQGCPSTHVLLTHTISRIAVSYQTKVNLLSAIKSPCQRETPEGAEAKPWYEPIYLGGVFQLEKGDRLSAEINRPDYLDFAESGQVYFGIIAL
# Assay: cell-based or functional assay
C-Terminal VD huTNFα Neutralization Assay IC50 [nM],N-Terminal VD huTNFα Neutralization Assay IC50 [nM],Binder
0.479,,B1
,0.02,B2
,0.008,B3
,0.022,B4
,0.002,B5
,0.004,B6
,0.002,B7
,0.011,B8
,0.01,B9
0.413,,B10
0.039,,B11
2.1,,B12
0.243,,B13
